We go through five molecules from PMC7545998, “A snake toxin as a theranostic agent for the type 2 vasopressin receptor” (Theranostics, 2020).

Where two headings read alike, the source gives them in different places.

The conditions of data set [1]: in rats; cited from earlier work. An excerpt:
The intrinsic qualities needed to develop a good in vivo contrast agent are high molecular selectivity so as to label only the selected target, a high affinity, so that a low dose of the tracer can be injected, quick blood elimination to reduce background noise and long-term residence in the targeted organ. […] As a peptide, MQ1 is simple to engineer. […] We exemplified this statement by generating the first PET agent specific to V2R and two highly efficient spe ...

For data set [2] the following is noted: cited from earlier work. The procedure:
Aprotinin and bikunin are two Kunitz peptides. Aprotinin is used clinically in acute pancreatitis, shock syndromes and hyperfibrinolytic hemorrhage. Bikunin is a protease Kunitz inhibitor that inhibits the invasiveness of tumor cells of various histological origins. Aprotinin [54] and bikunin [55] have similar T1/2α of 0.7 and 0.85 h and T1/2β of 7 and 6.4 h, respectively.

Data set [3] concerns porcine kidney epithelial cells LLC-pk1. The data set can be described thus: Confocal imaging of endogenous V2R in LLC-pk1 cells. It counts as cell-based. Conditions: 1 µM, 30-min pre-incubation. The procedure:
In cells endogenously expressing V2R, such as porcine kidney epithelial cells LLC-pk1, labeling of V2R with AFDye-488-MQ1 and Cy5.5-MQ1 (100 nM) was performed with either fresh or PFA-fixed cells (Figures 7A and B). […] In the pathophysiological context, three renal cancer cell lines (CAKI-2, ACHN and A498 [38]) known to express V2R were tested. […] The presence of V2R, at the cell membrane level, fluctuated as a function of cell density and the number of cell divisions, whatever the cell line used. […] To our knowledge, this is the first specific ligand labeling of V2R in non-permeabilized cancer cells.
Freshly dissociated CHO, LLC-PK1 or renal cancer cell lines expressing vasopressin receptors were seeded on 12-mm glass coverslips pre-coated with poly-ornithine, cultured for 48 h before incubation in DMEM, 0.2 mg/mL BSA, 25 mM HEPES, pH 7.4 for 1 h at 12°C or 30 min at 22 °C with fluorescent analogues in the absence or presence of non-fluorescent ligands (30-min pre-incubation). After 3 washes with cold PBS, the cells were finally fixed in 4% PFA overnight at 4 °C and mounted with Mowiol. The fluorescent cells were imaged using a Zeiss LSM510 Meta confocal microscope equipped with a ×63 (NA 1.4) oil immersion objective. For excitation, available laser rays were 488 and 633 nm and emission signals were collected in multitracking mode with appropriate band pass filters. […]

The target in data set [4] is T1, Type 2 vasopressin receptor (V2R) (Rattus norvegicus, UniProt Q00788).
T1 chain: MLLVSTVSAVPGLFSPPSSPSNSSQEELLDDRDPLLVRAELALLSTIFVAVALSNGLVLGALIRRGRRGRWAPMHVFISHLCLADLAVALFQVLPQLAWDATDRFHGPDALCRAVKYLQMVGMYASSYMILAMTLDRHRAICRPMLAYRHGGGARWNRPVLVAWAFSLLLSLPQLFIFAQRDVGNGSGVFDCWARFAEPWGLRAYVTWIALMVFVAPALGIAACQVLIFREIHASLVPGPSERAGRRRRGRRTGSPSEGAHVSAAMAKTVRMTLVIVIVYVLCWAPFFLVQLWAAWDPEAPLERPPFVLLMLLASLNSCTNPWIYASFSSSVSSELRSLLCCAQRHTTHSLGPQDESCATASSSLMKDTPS
The data set can be described thus: [3H]AVP competition radioligand binding.

As for `NC(=O)CC[C@@H]1NC(=O)[C@H](Cc2ccccc2)NC(=O)[C@H](Cc2ccc(O)cc2)NC(=O)[C@@H](N)CSSC[C@@H](C(=O)N2CCC[C@H]2C(=O)N[C@@H](CCCN=C(N)N)C(=O)NCC(N)=O)NC(=O)[C@H](CC(N)=O)NC1=O` [AVP, arginine-vasopressin], in data set [1], the T1/2α is 0.9 min and the T1/2β is reported as 8 min. Regarding Aprotinin [reference compound], in data set [2], the T1/2α was 42 min and the T1/2β was 420 min. On to `CCOc1ccc2c(c1)C1(CCC(OCCN3CCOCC3)CC1)C(=O)N2S(=O)(=O)c1ccc(C(=O)NC(C)(C)C)cc1OC` (centres unmarked) [SR121463, reference compound], for which, in data set [3], the “effect on labeling by AFDye-488-MQ1 and Cy5.5-MQ1” value is recorded as “inhibited the labeling”.

B1: bikunin: protease Kunitz inhibitor that inhibits the invasiveness of tumor cells (protein, UniProt P02760 206-352, looked up)
Inter-alpha-trypsin inhibitor …: AVLPQEEEGSGGGQLVTEVTKKEDSCQLGYSAGPCMGMTSRYFYNGTSMACETFQYGGCMGNGNNFVTEKECLQTCRTVAACNLPIVRGPCRAFIQLWAFDAVKGKCVLFPYGGCQGNGNKFYSEKECREYCGVPGDGDEELLRFSN
modifications: Inter-alpha-trypsin inhibitor light chain
Take B1: in data set [2], the T1/2α was 51 min and the T1/2β is 384 min.

B2: Mambaquaretin (MQ1) (protein)
chain: RPSFCNLPVKPGPCNGFFSAFYYSQKTNKCHSFTYGGCKGNANRFSTIEKCRRTCVG
Usually Ki stands for a measure of affinity in units of concentration, obtained from inhibition or displacement. High values mean weaker binding, low ones tighter binding. In data set [4], B2 had an inhibition constant (Ki) of 7.7 nM.
